# Laboratory results taken from the DeepSol protein solubility set.
# Experiment: soluble on expression in E. coli; label from the status in PepcDB or PDB records
row,Sequence,soluble on expression in E. coli
1,MGSDKIHHHHHHMKIGIITICKVNNYGAELQAFATQKKLEQMGHNAEIINYLYYKDWHFKDTPLSQPFVPLDMKGKLSYWIKYRLMSWVVNKVLPIFNGNMRRRLHNYQSFIDSERFSAQYKSMDELYKTYPKYDIYMVGSDQVWNPSASSSIEPYFLTFAPKNAPKVTYASSFGVASIAPNLSKRYAKLLNNLDTIAVREQSGVELVKQLTGREAKLVVDPTLLLSKADWEPYMKPLAKISTQYILIYQLFPSQTVIDVALKIGKEKNLPVYNICKRAYGMKKIVGINNILDAGPSEFLWLIANATCMVTNSFHGTAFSVNFATPFCCVLNRKRKNNGRMISFLDKVDMSNRILYEDSIAELNVMTACSEVTNNHLRLLVNNSIDYLKSIIENKEQKC,not soluble
2,MSKLIEYDETARRAMEVGMDKLADTVRVTLGPRGRHVVLAKAFGGPTVTNDGVTVAREIELEDPFEDLGAQLVKSVATKTNDVAGDGTTTATILAQALIKGGLRLVAAGVNPIALGVGIGKAADAVSEALLASATPVSGKTGIAQVATVSSRDEQIGDLVGEAMSKVGHDGVVSVEESSTLGTELEFTEGIGFDKGFLSAYFVTDFDNQQAVLEDALILLHQDKISSLPDLLPLLEKVAGTGKPLLIVAEDVEGEALATLVVNAIRKTLKAVAVKGPYFGDRRKAFLEDLAVVTGGQVVNPDAGMVLREVGLEVLGSARRVVVSKDDTVIVDGGGTAEAVANRAKHLRAEIDKSDSDWDREKLGERLAKLAGGVAVIKVGAATETALKERKESVEDAVAAAKAAVEEGIVPGGGASLIHQARKALTELRASLTGDEVLGVDVFSEALAAPLFWIAANAGLDGSVVVNKVSELPAGHGLNVNTLSYGDLAADGVIDPVKVTRSAVLNASSVARMVLTTETVVVDKPAKAEDHDHHHGHAH,soluble
3,MGSDKIHHHHHHMQATTATPHDIVFLFDCDNTLLDNDHVLADLRAHMMREFGAQNSARYWEIFETLRTELGYADYLGALQRYRLEQPRDTRLLLMSSFLIDYPFASRVYPGALNALRHLGARGPTVILSDGDVVFQPRKIARSGLWDEVEGRVLIYIHKELMLDQVMECYPARHYVMVDDKLRILAAMKKAWGARLTTVFPRQGHYAFDPKEISSHPPADVTVERIGDLVEMDAEWLLAEKR,not soluble
4,MSLKTMSDTSEIIFSNYGIYDLGDNLELLLPNTLIKFQRISDNAFSYFRENSEGQIIEKIIPVKSNDIKIELAPIRPLNHPAKRTNYVFLKLDKEIHLGENSAASIFVHCPIEIGIFLIYGDNHEPLDWITCNPLNSRFSLYGSPDTGTLCKYAEVSLATDYNDSVSYVNGVMHIVIENTLSFAQTISKVIFPITDNNLYYKDSKSIVDGIKIIMKKRAAVNIAEIKPTLVDTEWTQAPAWDNSIDSVHHMEMTLEEGHHHHHH,soluble
5,MFTGLVEETGEILKVEEGPFLRVYIGARKVLKDLKVGDSVAVDGACLTAVTVEEGGFWVELAQETLRRTAPTWRVGHRPNLERALKVGDRLGGHFVTGHVDGVARLWEVREAPGAKDFYFLPPKALAPYIAEKGSVALNGVSLTVAGLTGEAFWVTLIPHTLEVTNLGRLRVGDGVNLEVDLIARYVARLLGRA,soluble
6,MQKELINEIIGEVKPKAIALFGSQAKGKAGKFSDYDLLIITKDEESRNKAEKFEKGKVEIHALTMRTALELIHKGDPFFTQIVKECKPIYGEFYIKFLREVAENVGKSKVVA,not soluble
7,MGSDKIHHHHHHMHLAAEQMNLSQPAVSKMLKEIEGLLGFQVFERLPRNMPVTALGEHVIRYAQRVLNDAKHFVEDIEILRLGGHGFLKVGGIFAATAVVIPNSIIEIKKQWPLLSIDVVEQTSDHLMEMLSEHTLDLAIGRFTDVTQSQFFDFQPLGPEPFCIVVNNAHPCAQKKFCTLEELLKWPWVLYPKGTPIRERMEGAFARAKVKIPLNTVNTMSMQTFLQILKGAPMVGMLPEAMVIDQVKEGQLQILETDLILDAQDYGILTRKDEPVSDIAAAFINILLKNAKRK,not soluble
8,MFDKLKENEELWDLFTRKEEYSVTFRDAYERFPYYLSSHRNIFEPRVSKFLVENGLKPQYPDGKKFAVCLTHDIDAIYPDKLYPIVGPVKALSRGKLAEAVKAPFSRVNRKWNPCWNFREILALEAKYNAKSSFYFLALTSEETDFNYNIKDLETELGFISDSGWEVGLHGGHESYNSLEDIKEKKRRLEEVLGKKVVGYRNHYLRFRVPDTWELLSKAGFKYDTTFGYSDCAGFRNGMCHPYRPFNLNEGRQIDILEIPLVIMDRSLLKDYMRLNVKKAWECTKHLINTVEKYNGVITILWHNNMCIDGENLRYYEKVLEYCAEKNAWITSGEEIYNWWTSKIEPGNLEHHHHHH,not soluble
